Patent US20230192887A1 (published 2023)

B1: Bispecific Protein #9 (bispecific antibody, human IgG1, kappa, L234A L235A)
heavy 1: EVQLVESGGGLVQPGGSLRLSCAASGFTFTDYTMDWVRQAPGKGLEWVADVNPNSGGSIYNQRFKGRFTLSVDRSKNTLYLQMNSLRAEDTAVYYCARNLGPSFYFDYWGQGTLVTVSSASTKGPSVFPLAPSSKSTSGGTAALGCLVKDYFPEPVTVSWNSGALTSGVHTFPAVLQSSGLYSLSSVVTVPSSSLGTQTYICNVNHKPSNTKVDKKVEPKSCDKTHTCPPCPAPEAAGGPSVFLFPPKPKDTLMISRTPEVTCVVVDVSHEDPEVKFNWYVDGVEVHNAKTKPREEQYNSTYRVVSVLTVLHQDWLNGKEYKCKVSNKALPAPIEKTISKAKGQPREPQVYTLPPSRDELTKNQVSLWCLVKGFYPSDIAVEWESYGTEWSNYKTTPPVLDSDGSFFLYSKLTVSKEEWQQGFVFSCSVMHEALHNHYTQKSLSLSPGK
heavy 2: not shown
light: not shown
B2: Bispecific Protein #2 (bispecific antibody, human IgG1, kappa, L234A L235A)
heavy: B1 heavy 1
chain: not shown
light: not shown

Legend:
[1] = molecular target: HER2 on HER2^+ tumor cell lines (BT474, OE19, ZR75) (UniProt P04626 23-1255, limits assumed); experiment: cell-based or functional assay
[2] = molecular target: T1, recombinant human TfR apical domain (human, UniProt P02786 198-378); experiment: SPR (Biacore T200 or 8K); protein captured on anti-human Fab chip, recombinant human TfR apical domain as analyte; 1:1 Langmuir fit
T1 construct: also called transferrin receptor protein 1 apical domain
T1 sequence (P02786 198-378 limits assumed): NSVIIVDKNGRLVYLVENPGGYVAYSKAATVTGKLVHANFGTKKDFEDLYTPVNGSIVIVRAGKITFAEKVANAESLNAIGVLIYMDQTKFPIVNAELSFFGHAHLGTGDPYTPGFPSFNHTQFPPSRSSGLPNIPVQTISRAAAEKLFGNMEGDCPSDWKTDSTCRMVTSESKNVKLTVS
Description: Affinities of the bispecific proteins were measured by SPR using a Biacore T200 or a Biacore 8K. Biacore™ Series S CM5 sensor chips were immobilized with monoclonal mouse anti-human IgG (Fc) antibody for HER2 affinity measurements or mouse anti-human Fab for TfR affinity measurements (human antibody or Fab capture kit from GE Healthcare). Serial 3-fold dilutions of analyte (recombinant HER2 extracellular domain or recombinant TfR apical domain) were injected at a flow rate of 30 μL/min. Each sample was analyzed using a 3-minute association and a 10-minute dissociation for HER2 extracellular domain binding and a 40-second association and a 3-minute dissociation for human TfR apical domain binding. After each injection, the chip was regenerated using 3 M MgCl₂ or 50 mM glycine at pH 2.0. Binding response was corrected by subtracting the RU from a flow cell capturing an irrelevant IgG at similar density. A 1:1 Languir model of simultaneous fitting of kon and koff was used for kinetics analysis. […] The two constructs are described below.

Binder	IC50 (nM), BT474 + NRG1 [1]	IC50 (nM), BT-474 [1]	IC50 (nM), OE19 [1]	Min Cell viability (%), BT474 + NRG1 [1]	Min Cell viability (%), BT-474 [1]	Min Cell viability (%), OE19 [1]	Min Cell viability (%), ZR75-30 [1]	Kd [2]
B1	3.5 nM	2.3 nM	1.1 nM	37%	21%	57%	87%	500 nM
B2	–	–	–	–	–	–	–	480 nM
